Drawing on publication PMC7293203, this text covers Kd for one substance.

The target in this experiment is the activated zmTrpA variants (Zea mays). Nature of the experiment: activity titration.

Chain of tryptophan synthase β-subunit TrpB1 from Zea mays (P43283 whole entry): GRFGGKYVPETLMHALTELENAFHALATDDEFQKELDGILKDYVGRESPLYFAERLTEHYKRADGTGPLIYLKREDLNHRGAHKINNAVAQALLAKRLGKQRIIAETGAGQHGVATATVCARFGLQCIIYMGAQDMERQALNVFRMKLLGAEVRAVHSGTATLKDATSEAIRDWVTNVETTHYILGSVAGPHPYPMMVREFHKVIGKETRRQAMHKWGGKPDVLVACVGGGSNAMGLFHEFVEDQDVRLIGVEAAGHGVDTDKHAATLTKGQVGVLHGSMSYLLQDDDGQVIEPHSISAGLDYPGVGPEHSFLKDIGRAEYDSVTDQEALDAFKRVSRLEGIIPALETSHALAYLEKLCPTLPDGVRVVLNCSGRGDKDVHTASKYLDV

In the case of “tryptophan synthase β-subunit TrpB1 from Zea mays (from UniProt P43283 1-389) (enzyme)”, the Kd (as a rule, the free concentration of one partner at which half of the binding sites on the other are occupied at equilibrium, for simple one-to-one binding) is 300 to 700 nM.
